Data published in patent US20090169520A1, “Compounds, Pharmaceutical Compositions and Therapeutic Methods of Preventing and Treating Diseases and Disorders Associated With Amyloid Fibril Formation” (YISSUM RESEARCH DEVELOPMENT COMPANY OF THE HEBREW …, priority 2005, published 2009).
Ends that are not written are not given here.

Experiments:
Aβ (1-40) peptide = target: T1, Aβ (1-40) peptide (Homo sapiens, UniProt P05067); test: In vitro formation of amyloid fibril from Aβ (1-40), Thioflavin T fluorescence; assay type: biochemical; conditions: for effect on Aβ fibril formation (in words): 33 μM Aβ, ThT fluorescence; for Lag (fold change) / Rate (fold change): relative to No addition, asterisk = statistically significant
T1 construct: synthetic Aβ (1-40) peptide; purchased Biosource, Camarillo, Calif., USA; host or cells: chemical synthesis
Description: In vitro formation of amyloidfibril—In vitro formation of amyloid fibril was in the presence of the synthetic Aβ (1-40) peptide (Biosource, Camarillo, Calif., USA) as a precursor. The reporter molecule was Thioflavin T (ThT) (Sigma, Cat. No. T-3516, Jerusalem, Israel), a benzothiazole dye that undergoes a shift in its excitation spectrum (from 340 nm to 450 nm) when interacting with β-sheet amyloid structures. The resultant ThT fluorescence signal is proportional to the amount of amyloid formed (LeVine, 1993). A stock solution of Aβ in dimethylsulfoxide (DMSO) was diluted with phosphate-buffered saline (PBS) containing 0.02% Na-Azid to a final concentration of 162 μM and 20 μl of the diluted Aβ solution was placed in each well of a 96 multiwell plate (Nunc, Roskilde, Denmark). After 20 minutes of pre-incubation at room temperature of the Aβ samples (20 μl), 80 μl of 1.25 μM ThT in 50 mM glycine buffer, pH 8.5, was added. Incubation was with shaking at 200 rpm for 6 to 8 hours at the noted temperatures. Fluorescence was measured continuously or at 30-40 minute intervals, using a Spectro-fluorometer (Tecan, Maennedorf, Switzerland). Excitation and emission wavelengths were 450 nm and 485 nm, respectively. Enhancement of the fibrillation process by the different combinations of water-dissolved cholinesterases and peptides mimicking fragments thereof, was evaluated by dissecting the time curves into two stages: the lag before the onset of the fluorescence increase (the nucleation process) and the average rate of fluorescence increase at several time points (rate of fibrils formation). Statistics analysis was performed using the Kaleidagraph Software (Reading, Pa., USA).
BChE attenuates amyloid fibrils formation—Amyloid fibril (Aβ) formation was quantified by measuring changes in ThT fluorescence. As predicted, Aβ fibrils were spontaneously formed in vitro provided that the Aβ peptide was present above 5 μM. […] Reactions were performed in the absence or presence of increasing concentrations of purified human BChE (SEQ ID NO:2; FIG. 1a), recombinant ACHE-S (SEQ ID NO:6; FIG. 1b) or both (FIGS. 1c and d). […] Due to the complex kinetics of the fibril formation process the apparent rate of change in ThT fluorescence was repeatedly determined during the exponential phase of increase in its signal (at 390±20 minutes). […] In contrast, addition of similar doses of AChE to Aβ, predictably shortened by half the lag time prior to fibril formation, again in a dose dependent manner (FIG. 1e). The lag period therefore decreased from 240 minutes to 150 minutes and the maximal rate of fibril formation increased from 0.057 to 0.116 fluorescence units (FU)/min for Aβ alone as compared to Aβ in the presence of 0.36 μM AChE-S (FIG. 1b and Table 7, hereinbelow). When increasing doses of hBChE were added to a combined mix of 33 μM Aβ with 0.36 μM AChE-S, a dose-dependent interference with the fibril formation process was observed (FIG. 1c and 2a). Thus, BChE is capable of reducing the rate of fibrillation of Aβ alone, or Aβ which is formed in the presence of AChE.

[1] = Solubility in water for CD measurements; assay type: physicochemical; conditions: up to the concentration required for CD tests (1×10^−4 M); HFIP used instead
Experimental: Circular Dichroism (CD) measurements—For circular dichroism (CD) measurements, ASP peptides were dissolved in double distilled water (DDW) to a final concentration of 1×10^−4 M. To reach this concentration, as required for the CD measurements, BSP had to be dissolved in 1,1,1,3,3,3-hexafluoro-2-propanol (HFIP). Direct CD spectra were recorded at room temperature using a CD Jasco J-810 Spectropolarimeter (Easton, Md., USA) with a 1 mm path length cell. Recordings were at 0.5 nm intervals in the spectral range 185-260 nm.
Molecular modeling points at putative structural differences between BSP and ASP—In search for structural differences between the BSP and ASP peptides, the circular dichroism (CD) properties of the synthesized series of BSP and ASP peptides were determined (FIG. 4). […] The helical features observed for ASP40 are in line with reports of others (Cottingham et al., 2003).

T1 sequence (P05067 672-711 limits assumed): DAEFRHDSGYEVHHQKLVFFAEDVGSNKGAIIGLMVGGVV

In the case of “ASP40: synthetic AChE-S C-terminal peptide, mimics residues 575-614 in hAChE (DTLDEAERQWKAEFHRWSSYMVHWKNQFDHYSKQDRCSDL; ASP40 Synthetic peptide) [reference compound]”, the “effect on Aβ fibril formation (in words)” value (Aβ (1-40) peptide) is reported as “failed to show any significant capacity to activate or inhibit fibrillation”, the “Lag (fold change)” value (Aβ (1-40) peptide) is reported as 1.1 fold change and the “Rate (fold change)” value (Aβ (1-40) peptide) is reported as 0.8 fold change.

In the case of “GNIDEAEWEWKAGFHRWNNYMMDWKNQFNDYTSKKESCVGL [BSP41]”, the “solubility in water (in words)” value [1] is reported as “difficulties to solubilize”.

With “ASP23: synthetic AChE-S C-terminal peptide, mimics residues 592-614 in hAChE [reference compound]” the “effect on Aβ fibril formation (in words)” value (Aβ (1-40) peptide) was “no significant effect on amyloid formation”, the “Lag (fold change)” value (Aβ (1-40) peptide) was 1.1 fold change and the “Rate (fold change)” value (Aβ (1-40) peptide) was 1.2 fold change.
